# B1: 4H249-AA (peptide)
# chain: DEIAALEAENAALKAKNAALKAEIAALEG
# B2: 4H1401-AA (peptide)
# chain: DENAALEAKIAALKAKNAALKAEIAALEG
# B3: 4H3606-AA (peptide)
# chain: DKNAALKAEIAALEAENAALEAKIAALKG
# B4: 4H1385-AA (peptide)
# chain: DENAALEAKIAALKAKIAALKAEIAALEG
# B5: 4H1350-AA (peptide)
# chain: DENAALEAKIAALKAEIAALEAKIAALKG
# B6: 4H1064-AA (peptide)
# chain: DENAALEAEIAALEAKIAALEAKNAALKG
# B7: 4H1257-AA (peptide)
# chain: DENAALEAENAALKAKIAALKAEIAALEG
# What was measured:
# Assay in all cases: two-hybrid library CCmax;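 further: natural log of median RNA to DNA barcode read ratio; higher means stronger binding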
# Conditions in all cases: mean of both orientations
# [1] = target: T1, 4H3449-AA
# T1 chain: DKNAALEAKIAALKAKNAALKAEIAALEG
# [2] = target: T2, 4H3974-AA
# T2 chain: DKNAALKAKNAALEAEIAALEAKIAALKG
# [3] = target: T3, P6-AA-1HGe-S
# T3 chain: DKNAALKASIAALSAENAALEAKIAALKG
# [4] = target: T4, P6-AA-12HGe-R
# T4 chain: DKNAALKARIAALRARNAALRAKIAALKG
# [5] = target: T5, P5-AA-1HGe-H
# T5 chain: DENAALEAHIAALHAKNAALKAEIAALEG
# [6] = target: T6, P5-AA-12HGe-R
# T6 chain: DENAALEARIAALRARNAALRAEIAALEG
# [7] = target: T7, P5-AA-1HGe-T
# T7 chain: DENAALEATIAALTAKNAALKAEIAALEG
# [8] = target: T8, P6-AA-12HAA-D
# T8 chain: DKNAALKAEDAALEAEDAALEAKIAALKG
# [9] = target: T9, 4H2608-AA
# T9 chain: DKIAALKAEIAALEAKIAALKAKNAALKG
# [10] = target: T10, 4H2948-AA
# T10 chain: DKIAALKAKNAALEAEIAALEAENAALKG
# [11] = target: T11, 4H656-AA
# T11 chain: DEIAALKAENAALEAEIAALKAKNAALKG
# [12] = target: T12, 4H58-AA
# T12 chain: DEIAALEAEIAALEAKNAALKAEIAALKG
binder,measurement,setting,value
B1,interaction score,[1],-1.43
same,interaction score,[2],-0.0812
B2,interaction score,[3],2.27
same,interaction score,[4],-1.02
B3,interaction score,[5],2.15
same,interaction score,[6],1.65
same,interaction score,[7],2.43
B4,interaction score,[8],-1.1
B5,interaction score,[9],1.38
B6,interaction score,[10],-0.884
same,interaction score,[11],-1.36
B7,interaction score,[12],-1.21
